Assay results taken from patent publication US6342348 (GENETECH, dated 2002).

Biological target: T1, recombinant soluble rat GDNFRα (rat, UniProt Q62997 25-427, limits assumed)
T1 construct: also called rGDNFRα; GFR-alpha-1
T1 sequence (looked up): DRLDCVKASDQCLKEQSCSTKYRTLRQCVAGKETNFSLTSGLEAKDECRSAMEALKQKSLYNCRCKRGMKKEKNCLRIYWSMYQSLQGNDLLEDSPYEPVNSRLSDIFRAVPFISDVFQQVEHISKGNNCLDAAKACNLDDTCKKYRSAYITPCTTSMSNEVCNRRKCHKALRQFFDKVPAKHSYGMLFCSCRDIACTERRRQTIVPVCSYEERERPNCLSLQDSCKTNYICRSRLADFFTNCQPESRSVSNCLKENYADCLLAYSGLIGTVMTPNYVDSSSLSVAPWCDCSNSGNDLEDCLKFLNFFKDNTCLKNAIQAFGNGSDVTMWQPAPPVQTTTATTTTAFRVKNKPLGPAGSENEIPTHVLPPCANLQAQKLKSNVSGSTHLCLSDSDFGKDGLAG
Assay: equilibrium competition binding of ^125I-rGDNF to recombinant soluble rGDNFRα, Scatchard

Kd: 3 pM
B1: rat GDNF (ligand, UniProt Q07731 78-211, looked up)
chain: SPDKQAAALPRRERNRQAAAASPENSRGKGRRGQRGKNRGCVLTAIHLNVTDLGLGYETKEELIFRYCSGSCEAAETMYDKILKNLSRSRRLTSDKVGQACCRPVAFDDDLSFLDDSLVYHILRKHSAKRCGCI
modifications: ^125I label (iodinated either on tyrosine by the Bolton Hunter method or on lysine using lactoperoxidase)
notes: also called rGDNF; RGDNF
